Test results reported in paper PMC11790492 (Nature Microbiology, 2024).

Assays:
[1] = molecular target: KorB (wild type), C-terminally His-tagged (plasmid RK2 (Escherichia coli)) (UniProt P07674)
[2] = test system: AF647-KorA (Y84A) (plasmid RK2); test: optical tweezers residence time; details: unlabelled KorB, 2 mM CTP; BLI and C-trap buffers not given in the material; crystals 10 mM Tris-HCl, 150 mM NaCl pH 8.0 then 1.95 M ammonium sulfate, 0.1 M NaOAc pH 4.6; Eσ70 binding …
[3] = test system: AF647-KorA (plasmid RK2); test: optical tweezers residence time; details: BLI and C-trap buffers not given in the material, crystals 10 mM Tris-HCl, 150 mM NaCl pH 8.0 then 1.95 M ammonium sulfate, 0.1 M NaOAc pH 4.6, Eσ70 binding …
[4] = molecular target: T1, KorB (Escherichia coli, UniProt P07674); test: ITC (weak, affinity could not be fitted); format: binding; set-up: C-terminally His-tagged KorB (WT)
[5] = molecular target: KorB (plasmid RK2, expressed in Escherichia coli) (UniProt P07674); test: BLI; details: BLI and C-trap buffers not given in the material, crystals 10 mM Tris-HCl, 150 mM NaCl pH 8.0 then 1.95 M ammonium sulfate, 0.1 M NaOAc pH 4.6, Eσ70 binding …
[6] = molecular target: T1, KorB; test: ITC; […] Å co-crystal structure (ligand modelled as CTP, sulfur position not assignable); format: binding; set-up: ITC: C-terminally His-tagged KorB; crystal: KorB∆N30∆CTD (lacks the 30 N-terminal amino acids, the linker and the CTD)
[7] = molecular target: T2, ParB (Caulobacter vibrioides, UniProt P0CAV8); test: CTP hydrolysis rate by phosphate release assay (EnzChek), […] CTP; format: biochemical
T2 sequence (P0CAV8 1-304): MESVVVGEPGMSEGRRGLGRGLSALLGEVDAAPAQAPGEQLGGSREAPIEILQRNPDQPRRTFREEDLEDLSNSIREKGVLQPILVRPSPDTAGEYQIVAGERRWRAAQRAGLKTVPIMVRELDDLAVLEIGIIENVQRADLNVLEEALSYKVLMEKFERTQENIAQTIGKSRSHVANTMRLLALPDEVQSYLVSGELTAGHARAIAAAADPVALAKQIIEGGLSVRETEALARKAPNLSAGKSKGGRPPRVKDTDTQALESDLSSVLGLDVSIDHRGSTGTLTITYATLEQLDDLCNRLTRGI

[8] = molecular target: T1, KorB; test: ITC; also OB DNA-stimulated CTPase assay; format: binding; set-up: C-terminally His-tagged KorB (WT)
[9] = molecular target: T3, Noc (Bacillus subtilis, UniProt P37524); test: CTP hydrolysis rate by phosphate release assay (EnzChek), […] CTP; format: biochemical
T3 sequence (P37524 1-283): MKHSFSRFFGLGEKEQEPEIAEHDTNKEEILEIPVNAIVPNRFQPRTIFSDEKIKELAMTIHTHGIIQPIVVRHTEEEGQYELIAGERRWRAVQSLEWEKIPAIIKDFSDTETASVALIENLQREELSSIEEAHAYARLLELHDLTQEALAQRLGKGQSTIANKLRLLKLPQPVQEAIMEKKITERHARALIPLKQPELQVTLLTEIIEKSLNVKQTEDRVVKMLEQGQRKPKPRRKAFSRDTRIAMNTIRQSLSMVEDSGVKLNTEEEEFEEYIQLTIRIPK

[10] = molecular target: E. coli RNAP core;σ70 (Escherichia coli;Escherichia coli, UniProt P0A7Z4;P0A8V2;P0A8T7;P0A800;P00579 1-329;1-1342;1-1407;2-91;1-613, |); test: native MS; no KorA/KorB; BLI and C-trap buffers not given in the material; crystals 10 mM Tris-HCl, 150 mM NaCl pH 8.0 then 1.95 M ammonium sulfate, 0.1 M NaOAc pH 4.6; Eσ70 binding and; details: protein: recombinant;recombinant; tags: His10-PPX;His-SUMO, cleaved; chain copies: 2;1;1;1;1; blunt
[11] = molecular target: the molecule itself; test: cross-linking; BMOE (1 mM) cysteine cross-linking of 8 µM KorB variant dimer ± 1 mM CTP or CTPγS ± 24 bp OB or scrambled DNA; 10 mM Tris–HCl pH 7.4, 100 mM NaCl, 1 mM MgCl2; room temperature; SDS–PAGE, band quantification
[12] = molecular target: T4, KorB (wild type), C-terminally His-tagged (plasmid RK2 (Escherichia coli), UniProt P07674 1-358); test: ITC
T4 chain: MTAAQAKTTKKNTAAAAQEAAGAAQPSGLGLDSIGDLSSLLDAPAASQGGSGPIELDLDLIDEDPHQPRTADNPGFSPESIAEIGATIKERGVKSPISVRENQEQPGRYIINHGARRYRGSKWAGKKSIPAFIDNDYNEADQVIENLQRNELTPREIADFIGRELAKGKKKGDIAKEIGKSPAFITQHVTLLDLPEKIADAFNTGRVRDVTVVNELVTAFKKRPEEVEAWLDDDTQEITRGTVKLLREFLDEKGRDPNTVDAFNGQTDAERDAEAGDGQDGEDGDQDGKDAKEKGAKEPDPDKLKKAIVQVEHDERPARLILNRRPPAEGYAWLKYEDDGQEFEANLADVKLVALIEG

[13] = molecular target: T5, KorB (wild type), C-terminally His-tagged (plasmid RK2 (Escherichia coli), UniProt P07674 1-358); test: cell-based or functional assay
T5 sequence (looked up): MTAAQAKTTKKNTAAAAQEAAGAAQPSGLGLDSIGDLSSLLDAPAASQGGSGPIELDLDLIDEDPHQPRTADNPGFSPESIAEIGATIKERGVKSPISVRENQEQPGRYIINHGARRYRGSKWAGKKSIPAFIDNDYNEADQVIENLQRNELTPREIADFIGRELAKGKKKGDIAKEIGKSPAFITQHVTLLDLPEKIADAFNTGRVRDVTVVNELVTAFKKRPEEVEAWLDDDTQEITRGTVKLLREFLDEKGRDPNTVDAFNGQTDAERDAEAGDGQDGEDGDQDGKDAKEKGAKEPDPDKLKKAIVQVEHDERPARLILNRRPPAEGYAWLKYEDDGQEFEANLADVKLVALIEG

[14] = molecular target: the molecule itself; test: crystal structure; KorBΔN30ΔCTD–KorA complex with 14 bp OA DNA duplex, no CTPγS added; 2.7 Å; two KorA, two KorB subunits and one DNA duplex in the asymmetric unit
[15] = molecular target: KorBΔN30ΔCTD;KorA (plasmid RK2;plasmid RK2, UniProt P07674;P03052 31-252;1-101, |); test: X-ray crystallography; no CTPγS added; sulfates; BLI and C-trap buffers not given in the material; crystals 10 mM Tris-HCl, 150 mM NaCl pH 8.0 then 1.95 M ammonium sulfate, 0.1 M NaOAc pH 4.6; Eσ70 binding and; details: protein: recombinant;recombinant; tags: His-tagged;C-terminal His6 (pET21b); chain copies: 2;2; blunt, self-complementary, 2 copies

Q: Which change of the residence time of AF647–KorA at OA on DNA (optical tweezers) with unlabelled KorB and CTP, against KorA with or without apo-KorB [1] does the source give for “AF647–KorA: KorA with an extra C-terminal cysteine, C-terminally His-tagged, labelled with Alexa Fluor 647 (from UniProt P03052) (natural protein)” here?
A: 4.5 fold

Q: For “C-trap DNA 8xOB + 1xOA (22,394 bp; also ligated as 44.8 kb tandem)”, which binding [2] is on record?
A: 3.72 s

Q: What about the binding ([3]; unlabelled KorB (F249A), 2 mM CTP) of the same molecule?
A: 3.07 s

Q: And the binding ([3]; unlabelled KorB, 2 mM CTP)?
A: 10.1 s

Q: What about the binding ([3]; unlabelled KorB, no CTP) of the same molecule?
A: 2.61 s

Q: For `Nc1ccn([C@@H]2O[C@H](COP(=O)(O)OP(=O)(O)O)[C@@H](O)[C@H]2O)c(=O)n1` [CDP], which “ITC (weak, affinity could not be fitted)” value [4] is on record?
A: KorB binding to CDP was qualitatively much weaker than to CTP, but the data precluded the estimation

Q: For 40-bp OB DNA, which Kd ([5]; 1 mM CTP) is on record?
A: 60 µM

Q: And the Kd ([5]; no CTP)?
A: 0.14 µM

Q: How did the Kd [6] turn out when `Nc1ccn([C@@H]2O[C@H](COP(=O)(O)OP(=O)(O)OP(O)(O)=S)[C@@H](O)[C@H]2O)c(=O)n1` [CTPɣS, cytidine-5′-(3-thiotriphosphate)] was run?
A: 0.4 ± 0.1 µM

Q: What does the source list for `Nc1ccn([C@@H]2O[C@H](COP(=O)(O)OP(=O)(O)OP(=O)(O)O)[C@@H](O)[C@H]2O)c(=O)n1` [CTP]?
A: CTP hydrolysis rate by phosphate release assay (EnzChek), 1 mM CTP [7]: CTP hydrolysis rates of KorB, C. crescentus ParB, and B. subtilis Noc were measured by continuous detection; Kd [8]: 4.5 ± 0.5 µM; CTP hydrolysis rate by phosphate release assay (EnzChek), 1 mM CTP [9]: CTP hydrolysis rates of KorB, C. crescentus ParB, and B. subtilis Noc were measured by continuous detection

B1: PkorA 100 bp (nMS) (dsDNA)
DNA 1: GTTACGCCAAGGACGAGTTTTAGCGGCTAAAGGTGTTGACGTGCGAGAAATGTTTAGCTAAACTTCTCTCATGTGCTGGCGGCTGTCACCGCTATGTTCA
DNA 2: TGAACATAGCGGTGACAGCCGCCAGCACATGAGAGAAGTTTAGCTAAACATTTCTCGCACGTCAACACCTTTAGCCGCTAAAACTCGTCCTTGGCGTAAC
Q: Does B1 bind [10]?
A: binds

B2: KorB (K351C), C-terminally His-tagged (natural protein)
chain: MTAAQAKTTKKNTAAAAQEAAGAAQPSGLGLDSIGDLSSLLDAPAASQGGSGPIELDLDLIDEDPHQPRTADNPGFSPESIAEIGATIKERGVKSPISVRENQEQPGRYIINHGARRYRGSKWAGKKSIPAFIDNDYNEADQVIENLQRNELTPREIADFIGRELAKGKKKGDIAKEIGKSPAFITQHVTLLDLPEKIADAFNTGRVRDVTVVNELVTAFKKRPEEVEAWLDDDTQEITRGTVKLLREFLDEKGRDPNTVDAFNGQTDAERDAEAGDGQDGEDGDQDGKDAKEKGAKEPDPDKLKKAIVQVEHDERPARLILNRRPPAEGYAWLKYEDDGQEFEANLADVCLVALIEG
Q: Does B2 bind [11]?
A: binds

B3: KorA (wild type), C-terminally His-tagged (natural protein, plasmid RK2 (Escherichia coli))
chain: MKKRLTESQFQEAIQGLEVGQQTIEIARGVLVDGKPQATFATSLGLTRGAVSQAVHRVWAAFEDKNLPEGYARVTAVLPEHQAYIVRKWEADAKKKQETKR
notes: KorA of plasmid RK2, wild type; cysteine-less; expected monomer mass in nMS 12,825.6 Da; also called KorA (WT); KorA–(his)6; source: E. coli Rosetta (BL21 DE3) pLysS, pET21b, purified (HisTrap, Heparin, Superdex 75); not shown: His6, C-terminal, kept
Q: B3 was tested. Which Kd [12] did it give?
A: 4.2 µM

Q: What about the “fold of repression of a promoter–xylE reporter (OB 1.5 kb upstream of the core promoter, OA over the −10 element) in E. coli with WT KorA and WT KorB co-expressed” value [13] of the same molecule?
A: ~38000 fold

Q: Does B3 bind [14]?
A: binds

B4: 14 bp OA (dsDNA)
DNA 1: TGTTTAGCTAAACA
DNA 2: TGTTTAGCTAAACA
Q: Does B4 bind [15]?
A: binds
